Experimental data: patent US20160159920A1
“And” between values parts separate entries of the source, which are not always exact repeats. Identical values can stand only once.

Target: human Leptin receptor (LepR) (human) (UniProt P48357)
Experiment: cell-based or functional assay

human Leptin receptor (LepR) (human), sequence (P48357 22-1165): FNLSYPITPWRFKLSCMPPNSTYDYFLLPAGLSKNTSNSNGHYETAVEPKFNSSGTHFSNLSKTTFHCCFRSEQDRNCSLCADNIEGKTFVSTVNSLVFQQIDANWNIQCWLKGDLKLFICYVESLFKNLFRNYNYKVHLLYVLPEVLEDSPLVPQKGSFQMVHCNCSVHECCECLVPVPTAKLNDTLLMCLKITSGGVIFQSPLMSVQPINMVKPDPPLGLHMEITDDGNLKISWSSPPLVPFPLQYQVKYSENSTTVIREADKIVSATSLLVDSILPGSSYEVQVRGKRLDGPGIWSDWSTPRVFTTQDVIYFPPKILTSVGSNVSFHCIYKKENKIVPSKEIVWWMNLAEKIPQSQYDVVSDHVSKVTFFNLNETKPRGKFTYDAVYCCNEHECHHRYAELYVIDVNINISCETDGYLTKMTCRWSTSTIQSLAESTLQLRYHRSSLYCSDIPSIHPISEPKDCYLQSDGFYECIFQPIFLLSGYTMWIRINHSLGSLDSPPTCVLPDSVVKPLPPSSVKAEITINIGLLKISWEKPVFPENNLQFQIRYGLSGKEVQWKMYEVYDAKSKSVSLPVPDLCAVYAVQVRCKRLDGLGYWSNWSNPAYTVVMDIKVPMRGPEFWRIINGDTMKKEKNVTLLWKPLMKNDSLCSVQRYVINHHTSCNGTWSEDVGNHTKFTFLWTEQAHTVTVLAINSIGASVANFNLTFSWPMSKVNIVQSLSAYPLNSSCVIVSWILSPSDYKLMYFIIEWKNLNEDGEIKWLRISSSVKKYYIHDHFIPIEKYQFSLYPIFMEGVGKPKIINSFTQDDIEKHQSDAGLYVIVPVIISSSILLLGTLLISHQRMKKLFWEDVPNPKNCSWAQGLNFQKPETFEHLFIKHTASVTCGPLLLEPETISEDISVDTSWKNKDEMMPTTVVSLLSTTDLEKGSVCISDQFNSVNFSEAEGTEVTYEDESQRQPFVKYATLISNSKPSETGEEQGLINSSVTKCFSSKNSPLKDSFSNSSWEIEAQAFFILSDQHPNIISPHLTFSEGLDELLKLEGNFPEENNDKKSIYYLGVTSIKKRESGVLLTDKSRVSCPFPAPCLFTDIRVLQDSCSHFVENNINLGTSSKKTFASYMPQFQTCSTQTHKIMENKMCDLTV

In the case of “hLeptin (SEQ ID NO: 238) (from UniProt P41159 22-167) (ligand)”, the EC50, AlamarBlue proliferation of Baf3 stable cells overexpressing LepR was 129 ρM and 58.2 ρM.
